Here are results for four molecules from US8143216B2, “Modified human growth hormone” (Ambrx, Inc., priority 2004, dated 2012).

In experiment [1] the test system is rat model of growth hormone deficiency (hypophysectomized rats). Put plainly: Efficacy studies of PEGylated hGH in a rat model of growth hormone deficiency (Example 34). In kind it is in vivo. The method, then: Preclinical efficacy studies were conducted in a rat model of growth hormone deficiency. In this model, the pituitary gland was surgically removed at approximately 4 weeks of age. The body weights of these hypophysectomized rats were monitored after surgery and animals showing less than 7.5 grams of bodyweight gain over a period of 7 days before the study were deemed successfully hypophysectomized and were randomized amongst the treatment groups. Animals showing more than 2.5 g of weight-loss were deemed not healthy and were excluded from the study. The study was initiated approximately 3 weeks after the surgery.
Animals were dosed weekly (i.e. dosed on days 0 and 7) with either placebo or increasing PEG-^ahGH dose. An additional treatment group received Genotropin or placebo daily. Bodyweights and blood were collected predose and daily. All animals were sacrificed on day 14.
For this parameter, the AUC is expressed as AUC above the efficacious IGF-1 plasma level. […] In the current study, the baseline IGF-1 level determined from the placebo group throughout the study was 128 ng/mL. An increase of 34 ng/mL over 128 ng/mL estimates an efficacious IGF-1 level of 162 ng/mL. Thus the AUC above 162 ng/mL was integrated. From this analysis, a dose-dependent increase in AUC above efficacious level was observed after each dose interval.
The duration of IGF-1 levels induced above the estimated efficacious level after the first dose was determined. At the higher doses, the IGF-1 levels had not returned to baseline before the second dose. In these instances, the IGF-1 concentration was extrapolated to the efficacious level using the calculated terminal slopes. From this evaluation, a dose-dependent increase in duration of IGF-1 concentration above the efficacious level was evident.
Bone growth was used as an additional pharmacodynamic measure to calculate the PEG-^ahGH ED50. Tibias were collected from each animal at the end of the study and immersion fixed in 10% neutral-buffered formalin followed by radiography. There was a clear dose-dependent increase in tibial bone length for the PEG-^ahGH treated animals. Moreover, there was a dose sparing effect compared to the daily Genotropin treated animals. The amount of Genotropin administered over a 7-day interval is equivalent to 2.1 mg/kg of PEG-^ahGH given weekly (i.e., days 0 and 7). An induction of tibial bone length increase similar to Genotropin is shown for PEG-^ahGH at 0.42 to 1.0 mg/kg. This represents a ≧50% dose-sparing effect for PEG-^ahGH when compared to Genotropin.

Experiment [2] has as its target T1, human growth hormone receptor on IM-9 cells (Homo sapiens, UniProt P10912).
T1 construct: host or cells: human IM-9 lymphocyte cell line
T1 sequence (P10912 19-638): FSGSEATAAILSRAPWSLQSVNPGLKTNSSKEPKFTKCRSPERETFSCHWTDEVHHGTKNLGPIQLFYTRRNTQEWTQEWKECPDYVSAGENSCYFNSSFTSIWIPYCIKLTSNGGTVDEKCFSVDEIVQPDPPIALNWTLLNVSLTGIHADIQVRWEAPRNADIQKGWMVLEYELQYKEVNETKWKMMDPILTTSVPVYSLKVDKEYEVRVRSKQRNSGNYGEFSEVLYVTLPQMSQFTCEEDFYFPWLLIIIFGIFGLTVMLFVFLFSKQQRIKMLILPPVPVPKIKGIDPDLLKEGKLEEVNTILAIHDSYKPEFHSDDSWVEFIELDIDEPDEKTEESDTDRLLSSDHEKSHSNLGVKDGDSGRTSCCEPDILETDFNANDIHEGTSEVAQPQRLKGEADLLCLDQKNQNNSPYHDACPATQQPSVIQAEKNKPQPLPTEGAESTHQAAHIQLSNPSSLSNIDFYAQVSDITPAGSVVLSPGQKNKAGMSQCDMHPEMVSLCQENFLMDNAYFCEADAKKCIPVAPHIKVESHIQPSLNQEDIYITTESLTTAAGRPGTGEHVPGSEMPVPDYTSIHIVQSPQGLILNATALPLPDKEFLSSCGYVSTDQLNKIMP
Put plainly: IM-9 pSTAT5 bioassay (STAT5 phosphorylation in IM-9 cells). In kind it is cell-based. Conditions: IM-9 cells. An excerpt: To further assess the biological activity of modified hGH polypeptides, an assay measuring a downstream marker of hGH's interaction with its receptor was used. The interaction of hGH with its endogenously produced receptor leads to the tyrosine phosphorylation of a signal transducer and activator of transcription family member, STAT5, in the human IM-9 lymphocyte cell line. Two forms of STAT5, STAT5A and STAT5B were identified from an IM-9 cDNA library. See, e.g., Silva et al., Mol. Endocrinol. (1996) 10(5):508-518.
IM-9 cells were stimulated with hGH polypeptides of the present invention. The human IM-9 lymphocytes were purchased from ATCC (Manassas, Va.) and grown in RPMI 1640 supplemented with sodium pyruvate, penicillin, streptomycin (Invitrogen, Carlsbad, San Diego) and 10% heat inactivated fetal calf serum (Hyclone, Logan, Utah). The IM-9 cells were starved overnight in assay media (phenol-red free RPMI, 10 mM Hepes, 1% heat inactivated charcoal/dextran treated FBS, sodium pyruvate, penicillin and streptomycin) before stimulation with a 12-point dose range of hGH polypeptides for 10 min at 37° C. Stimulated cells were fixed with 1% formaldehyde before permeabilization with 90% ice-cold methanol for 1 hour on ice. The level of STAT5 phosphorylation was detected by intra-cellular staining with a primary phospho-STAT5 antibody (Cell Signaling Technology, Beverly, Mass.) at room temperature for 30 min followed by a PE-conjugated secondary antibody. Sample acquisition was performed on the FACS Array with acquired data analyzed on the Flowjo software (Tree Star Inc., Ashland, Oreg.). EC50 values were derived from dose response curves plotted with mean fluorescent intensity (MFI) against protein concentration utilizing SigmaPlot.
The interaction of hGH with its receptor leads to the tyrosine phosphorylation of a signal transducer and activator of transcription family member, STAT5, in the human IM-9 lymphocyte cell line.

Another experiment concerns the target T2, rat GHR ECD (L43R) (Rattus norvegicus, UniProt P16310, L61R).
T2 construct: (GHR ECD, amino acids S29-T238) was cloned into pET20b vector; made in house
T2 sequence (P16310 47-256 L61R): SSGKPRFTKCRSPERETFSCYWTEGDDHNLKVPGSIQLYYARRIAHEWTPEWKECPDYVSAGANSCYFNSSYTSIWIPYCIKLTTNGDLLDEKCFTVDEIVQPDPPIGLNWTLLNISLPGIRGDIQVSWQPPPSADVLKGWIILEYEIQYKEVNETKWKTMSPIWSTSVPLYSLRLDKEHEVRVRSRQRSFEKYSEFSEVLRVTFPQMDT
Kind of experiment: Biacore analysis of binding of GH to GHR. As to conditions: rat GHR ECD (L43R) immobilized on a CM5 chip, bivalent analyte model. The method, then: Cloning and purification of rat GH receptor The extracellular domain of rat GH receptor (GHR ECD, amino acids S29-T238) was cloned into pET20b vector (Novagen) between Nde I and Hind III sites in frame with C-terminal 6H is tag. A mutation of L43 to R was introduced to further approximate the human GH receptor binding site (Souza et al., Proc Natl Acad Sci USA. (1995) 92(4): 959-63). Recombinant protein was produced in BL21 (DE3) E. coli cells (Novagen) by induction with 0.4 mM IPTG at 30° C. for 4-5 hours. After lysing the cells, the pellet was washed four times by resuspending in a dounce with 30 mL of 50 mM Tris, pH 7.6, 100 mM NaCl, 1 mM EDTA, 1% Triton X-100, and twice with the same buffer without Triton X-100. […] Refolding was accomplished by means of passing an aliquot of the inclusion body solution through a S100 (Sigma) gel filtration column, equilibrated with 50 mM Tris, pH 7.8, 1 M L-arginine, 3.7 mM cystamine, 6.5 mM cysteamine. Fractions containing soluble protein were combined and dialyzed against 50 mM Tris, pH 7.6, 200 mM NaCl, 10% glycerol. The sample was briefly centrifuged to remove any precipitate and incubated with an aliquot of Talon resin (Clontech), according to manufacturer's instructions. After washing the resin with 20 volumes of dialysis buffer supplemented with 5 mM imidazole, protein was eluted with 120 mM imidazole in dialysis buffer. Finally, the sample was dialyzed overnight against 50 mM Tris, pH 7.6, 30 mM NaCl, 1 mM EDTA, 10% glycerol, centrifuged briefly to remove any precipitate, adjusted to 20% glycerol final concentration, aliquoted and stored at −80 C. Concentration of the protein was measured by OD(280) using calculated extinction coefficient of ε=65,700 M^−1*cm^−1.
Approximately 600-800 RUs of soluble GHR ECD was immobilized on a Biacore™ CM5 chip, using a standard amine-coupling procedure, as recommended by the manufacturer. […] See, e.g., Cunningham et al. J Mol. Biol. (1993) 234(3): 554-63 and Wells J A. Proc Natl Acad Sci USA (1996) 93(1): 1-6).
Various concentrations of wild type or mutant GH (0.1-300 nM) in HBS-EP buffer (Biacore™, Pharmacia) were injected over the GHR surface at a flow rate of 40 μl/min for 4-5 minutes, and dissociation was monitored for 15 minutes post-injection. The surface was regenerated by a 15 second pulse of 4.5M MgCl2. […] Reference cell with no receptor immobilized was used to subtract any buffer bulk effects and non-specific binding.
Kinetic binding data obtained from GH titration experiments was processed with BiaEvaluation 4.1 software (BIACORE™). […] Equilibrium dissociation constants (Kd) were calculated as ratios of individual rate constants (koff/kon).

Turning to “Genotropin: commercial preparation of hGH, Genotropin™ (Pfizer) [reference compound]”, the “bodyweight change on day 14 from day 0” value in experiment [1] (daily treatment at 0.3 mg/kg/day) is 27.74 (+/−7.92) %.

Consider “unPEGylated GH: unPEGylated GH administered weekly at 2.1 mg/kg in hypophysectomized rats [reference compound]”, for which the body weight gain result in experiment [1] (weekly at 2.1 mg/kg dose) is listed as “failed to induce body weight gain”.

B1: rat GH WT: wild type rat growth hormone (protein)
chain: FPAMPLSSLFANAVLRAQHLHQLAADTYKEFERAYIPEGQRYSIQNAQAAFCFSETIPAPTGKEEAQQRTDMELLRFSLLLIQSWLGPVQFLSRIFTNSLMFGTSDRVYEKLKDLEEGIQALMQELEDGSPRIGQILKQTYDKFDANMRSDDALLKNYGLLSCFKKDLHKAETYLRVMKCRRFAESSCAF
On to B1, for which, in experiment [2], the STAT5 phosphorylation result is listed as “neither rat growth hormone nor human prolactin resulted in detectable STAT5 phosphorylation”. The kon in the experiment with rat GHR ECD (L43R) stood at 33000 M⁻¹ s⁻¹.

B2: human prolactin: human prolactin (protein)
chain: LPICPGGAARCQVTLRDLFDRAVVLSHYIHNLSSEMFSEFDKRYTHGRGFITKAINSCHTSSLATPEDKEQAQQMNQKDFLSLIVSILRSWNEPLYHLVTEVRGMQEAPEAILSKAVEIEEQTKRLLEGMELIVSQVHPETKENEIYPVWSGLPSLQMADEESRLSAYYNLLHCLRRDSHKIDNYLKLLKCRIIHNNNC
Consider B2, for which, in experiment [2], the STAT5 phosphorylation entry was “neither rat growth hormone nor human prolactin resulted in detectable STAT5 phosphorylation”.
